US6458368

How the values were obtained:
[1] = biological target: unfolded HPV16 VLP (baculo-derived HPV16 VLPs in 0.2M carbonate buffer pH9.5) (Human papillomavirus type 16) (UniProt P03101); assay: ELISA, plates coated with VLP in carbonate buffer pH 9.5; antibody stock 35 µg/ml
[2] = biological target: baculo-derived HPV16 VLPs in PBS (native form) (Human papillomavirus type 16) (UniProt P03101); assay: ELISA, plates coated with baculo-derived HPV16 VLPs in PBS; antibody stock 35 µg/ml

Substance: HPV16-L1 mAb CAMVIR-1 (antibody)
- IgG titer (reciprocal of the highest sample dilution that yielded an OD492 four times that of preimmune sample) (reciprocal dilution) [1]: 80000
- IgG titer (reciprocal of the highest sample dilution that yielded an OD492 four times that of preimmune sample) (reciprocal dilution) [2]: 16000
